Consider three molecules from patent US20090291088A1, “THERAPEUTIC COMBINATIONS OF ANTI-IGF-1R ANTIBODIES AND OTHER COMPOUNDS” (Biogen Idec MA Inc., priority 2008, published 2009).

Assay [1] has as its target T1, human IGF-1R(1-902)-His10 (Homo sapiens, UniProt P08069).
T1 construct: human IGF-1R(1-902)-His10 (hIGF-1R-His10 (R&D systems)); purchased R&D systems 305-GR-050
Kind of assay: SPR, receptor ectodomain injected over immobilized antibodies: hIGF-1R-His10. The format is binding. To be noted: full-length fully human antibodies; even at the lowest concentration. The protocol:
(§1) SPR analyses were performed using a Biacore3000. The instrument was set to 25° C. and assays performed with running buffer HBS-EP pH 7.2 purchased from Biacore (Biacore, Cat. No. BR-1001-88). The fully human antibodies, M13-C06, M14-C03, and M14-G11 were immobilized to ˜10,000 RU on Biacore CM5 Research Grade Sensor Chip surfaces using the standard NHS/EDC-amine reactive chemistry according to protocols supplied by Biacore. For immobilization, the antibodies were diluted to 40 μg/mL in a 10 mM Acetate pH 4.0 buffer. To investigate the relative kinetics of association and dissociation of the full-length ectodomains of human IGF-1R(1-902)-His10 (hIGF-1R-His10 (R&D systems)) and human INSR(28-956)-His10 (INSR (R&D systems)) to each of the human antibodies, increasing concentrations of hIGF-1R-His10 or INSR were injected over the sensorchip surfaces. The hIGF-1R-His10 concentration series ranged from 1.0 nM to 250 nM while the INSR concentrations ranged from 1.0 nM to 2 μM. All antibody surfaces were reliably regenerated with 100 mM Glycine, pH 2.0. […] Flow rates were 20 μl/min. (“His10” denotes a 10-residue histidine tag on the C-terminus of the constructs.)

For another assay, the target named is T2, human INSR(28-956)-His10 (Homo sapiens, UniProt P06213).
T2 construct: human INSR(28-956)-His10 (INSR (R&D systems)); purchased R & D Systems 1544-IR
Kind of assay: SPR, receptor ectodomain injected over immobilized antibodies: INSR. Format: binding. To be noted: full-length fully human antibodies; up to 2 μM receptor. The procedure: as §1

In another assay the target is T3, hIGF-1R-Fc (Homo sapiens, UniProt P08069).
T3 construct: (3) human IGF-1R(1-903)-Fc (hIGF-1R-Fc, Biogen Idec); host or cells: CHO
The experiment in a line: IGF-1 and IGF-2 blocking ELISA-based competition assay. The format is binding. The protocol: hIGF-1R-Fc was biotinylated using EZ-Link Sulfo-NHS-LC-Biotin according to the protocol provided by the manufacturer (Pierce Cat. No. 21335). Biotinylated human IGF-1R-Fc at 5 μg/ml was added to the wells of SigmaScreen streptavidin-coated 96-well plates (Sigma, Cat. No. M5432-5EA; Sigma-Aldrich Corp. (St. Louis, Mo., USA)) at 100 μL/well and incubated overnight at 2-8° C. The plates were then washed four times with 200 μL/well PBST. […] Dilutions were made from 1.3 μM to 10 pM for M13-C06 and M14-C03, from 5.2 μM to […] for M14-G11, and from 2.6 μM to 10 pM for both P1E2 and αIR3. Human IGF-2 His was prepared at 320 nM in PBST, 1.0 mg/ml BSA. The antibodies were serial diluted (from […] to 5 pM for M13-C06 and M14-C03, from 5.2 μM to 5 pM for M14-G11 and αIR3, and from 5.2 μM to 20 pM for P1E2) using a solution of 320 nM IGF-2 His. The dilutions were added to the plates in duplicate at 100 μL/well and the plates were incubated at RT for 1 hour. The plates were then washed four times with 200 μL/well PBST. An HRP-conjugated anti-Histag antibody (Penta-His HRP Conjugate, QIAGEN, Cat. No. 1014992) was diluted 1:1000 in PBST and added to plates at 100 μL/well, and the plates were incubated at RT for one hour. […] The absorbance of each well was determined at 450 nm, and the results were normalized and plotted against the log of antibody concentration.
Background: An ELISA detects its analyte on a solid surface through an enzyme-linked reagent.

The target of assay [2] is T4, recombinant human IGF-1R ectodomain (Homo sapiens, UniProt P08069).
T4 construct: denoted hIGF-1R(1-902)-His10, was purchased from R&D systems (Cat. No. 305-GR-050); His or Fc (two alternative proteins, not both on one chain); purchased R & D Systems 305-GR
The experiment in a line: ELISA binding of Fabs and murine MAbs to recombinant soluble IGF-1R (IGF-1R-His, IGF-1R-Fc). To be noted: murine monoclonal antibodies; read-out: Binding (EC50nM) Protein ELISA. The procedure:
Recombinant human IGF-1R ectodomain was used to screen a human naïve phagemid Fab library containing 3.5×10^10 unique clones (Hoet, R. M., et al. Nat. Biotechnol. 23(3):344-8 (2005), (“Hoet et al.”) which is incorporated herein by reference in its entirety). Two distinct panning arms were followed using biotinylated IGF1R-his and IGF1R-Fc protein. Proteins were captured on steptavidin-coated magnetic beads prior to incubation with the phage library. In the case of IGF1R-Fc, a biotinylated anti-Fc antibody was captured on the magnetic beads, followed by captured of the Fc fusion protein. […] Sequence analysis of all clones determined 12 clones were isolated in both arms of the panning strategy. […]
ELISA assays were performed to determine specific binding of the Fab fragment antibodies to soluble IGF-1R over the insulin receptor. […] Bound antibody was detected with HRPO labeled goat α-human kappa (Southern Biotechnology Associates, #2060-05) for Fabs and goat α-mouse IgG Fcγ (Jackson Immunoresearch, # 115-035-164) for murine MAbs. Color development was stopped by addition of 4NH2SO4 and optical density is measured at 450 nm using a Molecular Devices plate reader and binding curves are generated.

B1: M14-C03: anti-IGF-1R antibody, allosteric blocker of IGF-1 and IGF-2 (antibody, V domains shown)
VH: EVQLLESGGGLVQPGGSLRLSCAASGFTFSKYMMSWVRQAPGKGLEWVSYISPSGGLTWYADSVKGRFTISRDNSKNTLYLQMNSLRAEDTAVYYCARDGARGYGMDVWGQGTTVTVSS
VL: DIQMTQSPATLSLSPGERATLSCRASQSVSSYLAWYQQKPGQAPRLLIYDASNRATGIPARFSGSGSGTDFTLTISSLEPEDFAVYYCQQRSNWPPEVTFGPGTKVDIK
modifications: Antibody variable heavy chain sequence; Antibody variable light chain sequence
Turning to B1, the “binding of hIGF-1R-His10 to immobilized antibody surface” value in assay [1] is “demonstrated binding”. For the same molecule, the “binding of INSR to immobilized antibody surface” value with human INSR(28-956)-His10 was “little binding activity”. For the same molecule, the “blocking of IGF-1 binding to IGF-1R” value in the assay with hIGF-1R-Fc (320 nM IGF-1 His) is “block both IGF-1 and IGF-2 binding to IGF-1R”. In addition, the “blocking of IGF-2 binding to IGF-1R” value with hIGF-1R-Fc (320 nM IGF-2 His) is “block both IGF-1 and IGF-2 binding to IGF-1R”.

B2: 20C8.3B8: murine anti-human IGF-1R monoclonal antibody from hybridoma; VH SEQ ID NO:43, VL SEQ ID NO:103 (antibody, V domains shown)
VH: DVQLQESGPDLVKPSQSLSLTCTVTGYSITSGYSWHWIRQFPGNKLEWMGYIHYSGGTNYNPSLKSRISITRDTSKNQFFLQLNSVTTEDTATYYCARSGYGYRSAYYFDYWGQGTTVTVSS
VL: DIVLTQSPASLAVSLGQRATISCRASKSVSTSAYSYMHWYQQKPGQPPKLLIYLASNLESGVPARFSGSGSGTDFTLNIHPVEEEDAATYYCQHSRELPYTFGGGTKLEIK
modifications: Antibody variable heavy chain sequence; Antibody variable light chain sequence
Regarding B2, the EC50 in assay [2] amounted to 0.085 nM.

B3: 20D8.24B11: murine anti-human IGF-1R monoclonal antibody from hybridoma; VH SEQ ID NO:53, VL SEQ ID NO:103 (antibody, V domains shown)
VH: DVQLQESGPDLVKPSQSLSLTCTVTGYSITSGYSWHWIRQFPGNKLEWMGYIHYSGGTNYNPSLKSRISITRDTSKNQFFLQLNSVTTEDTATYYCARSGYGYRSAYYFDYWGQGTTLTVSS
VL: DIVLTQSPASLAVSLGQRATISCRASKSVSTSAYSYMHWYQQKPGQPPKLLIYLASNLESGVPARFSGSGSGTDFTLNIHPVEEEDAATYYCQHSRELPYTFGGGTKLEIK
modifications: Antibody variable heavy chain sequence; Antibody variable light chain sequence
Take B3: in assay [2], the EC50 was determined as 0.042 nM.
